The target in one data set is T1, V5-Tin (UniProt P22711).
T1 sequence: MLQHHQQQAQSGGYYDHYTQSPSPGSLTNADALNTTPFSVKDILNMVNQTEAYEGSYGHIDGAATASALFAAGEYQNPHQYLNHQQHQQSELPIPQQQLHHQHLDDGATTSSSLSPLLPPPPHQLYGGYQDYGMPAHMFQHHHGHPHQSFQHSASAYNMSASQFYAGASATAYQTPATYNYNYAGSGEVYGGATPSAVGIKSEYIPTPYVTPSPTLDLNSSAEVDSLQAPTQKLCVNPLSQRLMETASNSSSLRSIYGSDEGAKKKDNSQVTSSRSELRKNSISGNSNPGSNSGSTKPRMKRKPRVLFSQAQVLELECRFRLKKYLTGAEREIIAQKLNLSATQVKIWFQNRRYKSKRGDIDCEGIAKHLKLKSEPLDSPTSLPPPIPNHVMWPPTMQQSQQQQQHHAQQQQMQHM
Kind of data set: EMSA. The following applies: 20 mM HEPES pH 7.9, 1.4 mM MgCl2, 1 mM ZnSO4, 40 mM KCl, 0.1 mM EDTA, 5% glycerol, 0.2 ug poly(dI-dC), 0.1 ug BSA, 10 mM DTT, 0.1% NP40, 30 ul, 20 min; gel 6% …. On the technique in general: A gel shift assay detects complexes by their altered migration in electrophoresis.

In data set [1] the target is GST-Ubx^FL (full length) (Drosophila) (UniProt P83949). Description: pull-down; GST or GST-Ubx fusion proteins in equal amounts with His-purified proteins; affinity buffer (20 mM HEPES, 10 uM ZnCl2, 0.1% Triton, 2 mM EDTA) with NaCl, 1 mM DTT, 0.1 mM PMSF; 2 h at 4 °C; western blot. Background: A western blot detects proteins with antibodies after separation by electrophoresis.
Sequence of GST-Ubx^FL (full length) (Drosophila) (P83949 whole entry, the tested form may be a part): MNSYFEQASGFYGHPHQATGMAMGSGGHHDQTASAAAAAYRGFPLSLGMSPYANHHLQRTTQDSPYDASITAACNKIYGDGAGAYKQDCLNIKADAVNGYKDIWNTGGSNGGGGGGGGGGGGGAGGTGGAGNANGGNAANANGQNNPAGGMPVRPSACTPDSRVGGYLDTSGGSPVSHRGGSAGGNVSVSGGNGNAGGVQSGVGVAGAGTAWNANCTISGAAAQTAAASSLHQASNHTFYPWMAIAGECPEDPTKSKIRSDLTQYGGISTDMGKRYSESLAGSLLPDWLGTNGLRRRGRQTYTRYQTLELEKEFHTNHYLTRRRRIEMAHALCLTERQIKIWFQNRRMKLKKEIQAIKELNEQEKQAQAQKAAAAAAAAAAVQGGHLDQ

In the case of “CAATCGCTGTAAATAAATAGGAGCCGCAGATCAAAGGCCTATCAATTAGCACCCATTTCGATTATGCTGCATGCTGCATATGCAGCACTTGCACTGCCTGCAATTCACACCCAATTAGTAATAAATTTGAATGCGCGCTGCAATTTGCCG (double strand) [dpp674 enhancer fragment F3 (150 bp)]”, the binding result with V5-Tin is “binds”.

B1: V5-Tin, His-purified (natural protein)
chain: MLQHHQQQAQSGGYYDHYTQSPSPGSLTNADALNTTPFSVKDILNMVNQTEAYEGSYGHIDGAATASALFAAGEYQNPHQYLNHQQHQQSELPIPQQQLHHQHLDDGATTSSSLSPLLPPPPHQLYGGYQDYGMPAHMFQHHHGHPHQSFQHSASAYNMSASQFYAGASATAYQTPATYNYNYAGSGEVYGGATPSAVGIKSEYIPTPYVTPSPTLDLNSSAEVDSLQAPTQKLCVNPLSQRLMETASNSSSLRSIYGSDEGAKKKDNSQVTSSRSELRKNSISGNSNPGSNSGSTKPRMKRKPRVLFSQAQVLELECRFRLKKYLTGAEREIIAQKLNLSATQVKIWFQNRRYKSKRGDIDCEGIAKHLKLKSEPLDSPTSLPPPIPNHVMWPPTMQQSQQQQQHHAQQQQMQHM
On to B1, for which the fold stronger than the Ubx-Exd interaction (signal in pull-down compared with input) in data set [1] is > 10 fold.

(Values after publication PMC7069958, “Multi-level and lineage-specific interactomes of the Hox transcription factor Ubx contribute to its functional specificity”.)
